Source: patent US20110200528A1 (GOVERNMENT OF THE UNITED STATES OF AMERICA, published 2011)
Blank lines part the entries; values can stand above or below the molecule they belong to. OG = Oregon Green 488 (6-isomer carboxylic acid) on Lys side chain

Experiments:
[1] = molecular target: aminopeptidase N isoform CD13 (APN/CD13) on HT-1080 human fibrosarcoma cells (human) (UniProt P15144); assay: flow cytometry on HT-1080 cells
[2] = molecular target: aminopeptidase N isoform CD13 (APN/CD13) on HT-1080 human fibrosarcoma cells (human) (UniProt P15144); assay: flow cytometry on CD13-positive HT-1080 cells; reference: liposome with a linear peptide
[3] = molecular target: T1, aminopeptidase N isoform CD13 (APN/CD13) on HT-1080 human fibrosarcoma cells (human, UniProt P15144 2-967); assay: flow cytometry on CD13-positive HT-1080 cells
T1 construct: whole, on cells; also called CD13/APN marker
T1 sequence (P15144 2-967): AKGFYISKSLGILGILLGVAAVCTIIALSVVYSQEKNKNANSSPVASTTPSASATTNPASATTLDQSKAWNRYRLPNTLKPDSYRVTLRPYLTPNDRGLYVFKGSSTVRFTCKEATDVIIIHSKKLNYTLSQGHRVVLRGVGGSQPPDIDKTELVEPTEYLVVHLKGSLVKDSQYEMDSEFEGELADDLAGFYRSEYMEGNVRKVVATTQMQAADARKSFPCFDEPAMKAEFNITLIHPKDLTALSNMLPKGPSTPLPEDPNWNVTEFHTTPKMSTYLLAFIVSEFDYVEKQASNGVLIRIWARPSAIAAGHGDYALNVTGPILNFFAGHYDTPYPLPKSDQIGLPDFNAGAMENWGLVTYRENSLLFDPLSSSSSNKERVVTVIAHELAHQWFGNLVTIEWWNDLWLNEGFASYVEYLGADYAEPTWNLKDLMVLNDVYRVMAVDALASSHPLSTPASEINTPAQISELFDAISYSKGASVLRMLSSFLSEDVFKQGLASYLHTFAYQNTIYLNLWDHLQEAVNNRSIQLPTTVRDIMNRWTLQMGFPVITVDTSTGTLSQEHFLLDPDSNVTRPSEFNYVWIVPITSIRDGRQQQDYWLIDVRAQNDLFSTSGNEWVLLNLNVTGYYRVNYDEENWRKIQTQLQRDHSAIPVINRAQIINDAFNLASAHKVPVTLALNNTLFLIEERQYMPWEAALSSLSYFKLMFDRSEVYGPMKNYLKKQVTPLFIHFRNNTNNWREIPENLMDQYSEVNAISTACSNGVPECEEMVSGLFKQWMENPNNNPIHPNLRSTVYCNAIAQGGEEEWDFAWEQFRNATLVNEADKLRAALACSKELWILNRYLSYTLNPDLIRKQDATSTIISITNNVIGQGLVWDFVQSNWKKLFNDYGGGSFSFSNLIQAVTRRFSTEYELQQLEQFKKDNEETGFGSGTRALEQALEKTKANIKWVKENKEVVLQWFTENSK
Experimental: To determine the half maximal effective concentration (EC₅₀) of cK(OG)NGRE (SEQ ID NO:2) and low temperature sensitive liposomes targeted with 5 mol % DSPE-PEG-cNGR, flow cytometry was performed according to standard procedures with HT-1080 cells. Approximately 94% of the HT-1080 cells were positive for the WM15 antibody indicating the presence of CD13 on these cells.

aminopeptidase N isoform CD13 (APN/CD13) on HT-1080 human fibrosarcoma cells (human), sequence (P15144 2-967): as above

Molecule: Anti-CD13 monoclonal antibody (WM15, Alexa Fluor 488-conjugated)
percent of cells positive [1]: 94%

B1: low temperature sensitive liposomes targeted with 5 mol % DSPE-PEG-cNGR (peptide)
peptide: KNGRE
modifications: cyclized cKNGRE; conjugated to DSPE-PEG2000CH2COOH (DSPE-PEG-cNGR conjugate 7) and built into a liposome (DPPC:MSPC:DSPE-PEG-cNGR 86.3:9.7:5)
fold lower binding concentration against the liposome with a linear peptide [2]: 3.5 fold

Now from value to molecule:

EC50 [3]: 220 µM
B2: linear form of an NGR-containing peptide (SEQ ID NO:4) (peptide)
peptide: KNGRE
notes: also called linear NGR peptide; free linear NGR peptide

EC50 [3]: 61 µM
Molecule: cyclo(K(OG)NGRE) (also: Glu side chain coupled to Rink amide resin (side-chain amide), also called compound 6; NGR-OG agent) [cyclic cK(OG)NGRE (SEQ ID NO:2)]
